Laboratory results published in patent US20250243289A1 (PROMETHEUS BIOSCIENCES, published 2025).
Several values for one entry are separate records, joined by “and”; a condition that tells them apart may be missing. Equal entries are not always repeated.

T1: recombinant human TL1A protein (tumor necrosis factor-like cytokine 1A) (human, UniProt O95150 72-251)
T1 sequence (looked up): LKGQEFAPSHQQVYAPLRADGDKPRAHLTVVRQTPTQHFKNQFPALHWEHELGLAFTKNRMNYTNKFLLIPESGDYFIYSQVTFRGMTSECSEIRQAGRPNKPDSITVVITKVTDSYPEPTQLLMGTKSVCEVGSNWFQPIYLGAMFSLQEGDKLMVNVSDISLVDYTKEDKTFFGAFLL

T2: recombinant cynomolgus monkey TL1A protein (cynomolgus monkey, UniProt G7PRK8 72-251)
T2 sequence: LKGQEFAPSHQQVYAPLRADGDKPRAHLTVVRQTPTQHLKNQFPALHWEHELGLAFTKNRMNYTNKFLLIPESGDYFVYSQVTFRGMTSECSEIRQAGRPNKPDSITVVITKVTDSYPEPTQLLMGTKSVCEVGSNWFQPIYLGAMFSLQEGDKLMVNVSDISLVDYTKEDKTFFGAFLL

T3: human TL1A, endogenous in human whole blood (human, UniProt O95150 72-251, limits assumed)
T3 sequence (looked up): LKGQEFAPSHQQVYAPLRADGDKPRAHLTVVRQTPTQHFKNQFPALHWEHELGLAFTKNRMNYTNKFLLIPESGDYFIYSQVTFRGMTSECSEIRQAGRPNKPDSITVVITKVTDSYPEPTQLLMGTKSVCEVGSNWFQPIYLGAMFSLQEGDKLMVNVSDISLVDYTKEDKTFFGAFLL

T4: recombinant TL1A antigen (UniProt O95150 72-251, limits assumed)
T4 sequence (looked up): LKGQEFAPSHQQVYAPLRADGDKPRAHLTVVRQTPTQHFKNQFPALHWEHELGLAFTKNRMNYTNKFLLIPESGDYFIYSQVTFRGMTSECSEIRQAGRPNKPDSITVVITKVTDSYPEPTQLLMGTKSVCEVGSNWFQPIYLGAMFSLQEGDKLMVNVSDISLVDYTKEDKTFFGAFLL


Experiments:
[1] = molecular target: T1, recombinant human TL1A protein (tumor …); test: cell-based or functional assay
[2] = molecular target: monkey TL1A in the in vitro monkey whole blood IFN-γ assay (monkey); test: cell-based or functional assay
[3] = molecular target: T2, recombinant cynomolgus monkey TL1A …; test: cell-based or functional assay
[4] = molecular target: T3, human TL1A, endogenous in human whole …; test: cell-based or functional assay
recombinant TL1A antigen = molecular target: T4, recombinant TL1A antigen; test: ELISA titration against recombinant TL1A antigen

Binder	% Inhibition at 1 nM Ig (interferon gamma release in human blood) [4] [%]	% Inhibition at 10 nM Ig (interferon gamma release in human blood) [4] [%]	other results
anti-TL1A antibody A219 (antibody, V domains shown) VH: QVQLVQSGAEVKKPGASVKVSCKASGFDIQDTYMHWVKQRPGQGLEWMGRIDPASGHTKYDPKFQVRVTITRDTSTSTVYLELSSLRSEDTAVYYCARSGGLPDVWGQGTTVTVSS VL: EIVLTQSPGTLSLSPGERATLSCRASSSVSYMYWYQQKPGQAPRPLIYATSNLASGIPDRFSGSGSGTDFTLTISRLEPEDFAVYYCQQWEGNPRTFGGGTKLEIK			inhibition of human TL1A-induced caspase activation in TF-1 cells (IC50) [1]: 0.27 nM; IC50 of the in vitro monkey whole blood IFN-γ release assay [2]: 1.54 nM and 289 ng/mL; inhibition of monkey TL1A-induced caspase activation in TF-1 cells (IC50) [3]: 0.59 nM; inhibition of the IFN-γ response in monkey whole blood stimulated with immune complex, IL-12 and IL-18 (mean IC50) [3]: 1.54 nM and 289 ng/ml
A147 (antibody, human IgG1, V domains shown) VH: QVQLVQSGAEVKKPGASVKVSCKASGFDIQDTYMHWVKQRPGQGLEWMGRIEPASGHIKYDPKFQGRVTMTRDTSTSTVYMELSSLRSEDTAVYYCARSGGLPDWWGQGTTVTVSS VL: EIVLTQSPGTLSLSPGERATLSCRASSSVSYMYWYQQKPGQAPRPLIYATSNLASGIPDRFSGSGSGTDFTLTISRLEPEDFAVYYCQQWEGNPRTFGGGTKLEIK	51.3	72.4	
A213 (antibody, human IgG1, V domains shown) VH: QVQLVQSGAEVKKPGASVKVSCKASGFDIQDTYMHWVRQRPGQGLEWMGRIDPASGHTKYDPKFQVRVTITTDTSTSTVYMELSSLRSEDTAVYYCARSGGLPDVWGQGTTVTVSS VL: EIVLTQSPGTLSLSPGERATLSCRASSSVSYMYWYQQKPGQAPRPLIYATSNLASGIPDRFSGSGSGTDFTLTISRLEPEDFAVYYCQQWEGNPRTFGGGTKLEIK	48.6	69.8	
A219 (antibody, V domains shown) VH: QVQLVQSGAEVKKPGASVKVSCKASGFDIQDTYMHWVKQRPGQGLEWMGRIDPASGHTKYDPKFQVRVTITRDTSTSTVYLELSSLRSEDTAVYYCARSGGLPDVWGQGTTVTVSS VL: EIVLTQSPGTLSLSPGERATLSCRASSSVSYMYWYQQKPGQAPRPLIYATSNLASGIPDRFSGSGSGTDFTLTISRLEPEDFAVYYCQQWEGNPRTFGGGTKLEIK	59.8	75.2	
A220 (antibody, human IgG1, V domains shown) VH: QVQLVQSGAEVKKPGASVKVSCKASGFDIQDTYMHWVKQRPGQGLEWMGRIDPASGHTKYDPKFQVRVTMTRDTSTSTAYLELSSLRSEDTAVYYCARSGGLPDVWGQGTTVTVSS VL: EIVLTQSPGTLSLSPGERATLSCRASSSVSYMYWYQQKPGQAPRPWIYATSNLASGIPDRFSGSGSGTDFTLTISRLEPEDFAVYYCQQWEGNPRTFGGGTKLEIK	36.9	63.2	
A217 (antibody, human IgG1, V domains shown) VH: QVQLVQSGAEVKKPGASVKVSCKASGFDIQDTYMHWVKQRPGQGLEWMGRIDPASGHTKYDPKFQVRVTITRDTSTSTVYMELSSLRSEDTAVYYCARSGGLPDVWGQGTTVTVSS VL: EIVLTQSPGTLSLSPGERATLSCRASSSVSYMYWYQQKPGQAPRPLIYATSNLASGIPDRFSGSGSGTDFTLTISRLEPEDFAVYYCQQWEGNPRTFGGGTKLEIK	46	72.2	
A212 (antibody, human IgG1, V domains shown) VH: QVQLVQSGAEVKKPGASVKVSCKASGFDIQDTYMHWVRQRPGQGLEWIGRIDPASGHTKYDPKFQVRATITTDTSTSTAYLELSSLRSEDTAVYYCARSGGLPDVWGQGTTVTVSS VL: EIVLTQSPGTLSLSPGERATLSCRASSSVSYMYWYQQKPGQAPRPLIYATSNLASGIPDRFSGSGSGTDFTLTISRLEPEDFAVYYCQQWEGNPRTFGGGTKLEIK	46.8	71.2	
anti-TL1A antibody with heavy chain SEQ ID NO: 379 (S228P, L235E) and light chain SEQ ID NO: 381 (antibody, human IgG4 S228P, kappa, IgG4) heavy: not shown light: EIVLTQSPGTLSLSPGERATLSCRASSSVSYMYWYQQKPGQAPRPLIYATSNLASGIPDRFSGSGSGTDFTLTISRLEPEDFAVYYCQQWEGNPRTFGGGTKLEIKRTVAAPSVFIFPPSDEQLKSGTASVVCLLNNFYPREAKVQWKVDNALQSGNSQESVTEQDSKDSTYSLSSTLTLSKADYEKHKVYACEVTHQGLSSPVTKSFNRGEC			EC50 (recombinant TL1A antigen): 0.324 nM
